Measurements as given in US20250270295A1 (ALBERT LUDWIGS UNIVERSITAET FREIBURG, published 2025).
Positions count from the first letter of the chain named.

T1: soluble human ICOSL ectodomain, V5-His tagged (sICOSL-V5His) (human, UniProt O75144 19-256)
T1 construct: extracellular domain; Control protein with the same tags as the vFcγRs
T1 sequence: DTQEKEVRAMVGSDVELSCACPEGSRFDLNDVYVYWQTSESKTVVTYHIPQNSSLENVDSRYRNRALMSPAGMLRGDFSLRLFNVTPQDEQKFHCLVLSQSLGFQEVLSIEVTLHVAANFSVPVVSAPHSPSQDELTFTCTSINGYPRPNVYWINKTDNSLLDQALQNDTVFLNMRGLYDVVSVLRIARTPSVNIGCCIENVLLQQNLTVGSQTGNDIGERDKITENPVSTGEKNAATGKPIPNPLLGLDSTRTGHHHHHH

T2: soluble gp34 ectodomain W65F, V5-His tagged (sgp34mtrp-V5-His) (HCMV strain AD169)
T2 construct: signal peptide 1-23 left out; V5 and His tags are in the entry; Forms only monomers and dimers; also called sol gp34mtrp; gp34 1-179 W65F
T2 chain: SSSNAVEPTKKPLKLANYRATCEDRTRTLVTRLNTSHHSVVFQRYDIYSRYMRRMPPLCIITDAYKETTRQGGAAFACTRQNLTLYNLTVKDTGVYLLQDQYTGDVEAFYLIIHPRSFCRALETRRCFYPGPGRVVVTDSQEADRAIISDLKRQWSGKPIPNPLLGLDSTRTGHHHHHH

T3: gp34mtrp (W65F) on stably transduced HeLa cells (HCMV strain AD169, UniProt P16809 24-234)
T3 construct: whole, on cells; also called plasma membrane exposed gp34mtrp
T3 sequence: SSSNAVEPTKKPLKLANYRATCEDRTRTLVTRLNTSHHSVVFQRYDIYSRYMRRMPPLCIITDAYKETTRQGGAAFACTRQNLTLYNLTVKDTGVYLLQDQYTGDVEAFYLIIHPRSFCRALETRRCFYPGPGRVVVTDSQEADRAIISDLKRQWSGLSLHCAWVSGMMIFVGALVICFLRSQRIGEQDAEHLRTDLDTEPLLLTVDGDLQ

T4: gp68_ECD_4a* (1-144aa) (HCMV strain AD169, UniProt P16739 24-144)
T4 construct: Shortened by a stop codon that arose in cloning, so a C-terminal tag is doubtful
T4 sequence: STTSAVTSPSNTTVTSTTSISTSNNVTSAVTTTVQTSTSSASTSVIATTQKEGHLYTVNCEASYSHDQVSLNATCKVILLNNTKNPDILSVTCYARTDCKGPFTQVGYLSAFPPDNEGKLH

T5: gp34wt on stably transduced HeLa cells (HCMV strain AD169, UniProt P16809 24-234)
T5 construct: whole, on cells; also called plasma membrane exposed gp34wt
T5 sequence: T3 sequence with F42W

T6: soluble gp34 wild type ectodomain, V5-His tagged (sgp34wt-V5-His) (HCMV strain AD169)
T6 construct: Entry holds signal peptide 1-23 (left out), ectodomain, V5 tag and His tag; Forms monomers, dimers and higher oligomers; also called sol gp34 wt; gp34 1-179
T6 chain: T2 chain with F42W

B1: gp34wt.07 (antibody, V domains shown)
VH: QVKLEESGPELVKTGASVKISCKASGYSFTSYQIYWVKQSHGKSLEWIGHISCYNGATSYNQKFKDKATFTVDTSSSTAYMQFNSLTSEDSAVYFCARYDYAPDYYAMDYWGQGTSVTVSS
VL: DIVLTQTPASLAVSLGQRATISCRASESVDSYGNSFMHWYQQKPGQPPKLLIYLASNLESGVPARFSGSGSRTDFTLTIDPVEAEDAAIYYCQQNNEDPLTFGGGTKLELK
notes: mouse IgG1 hybridoma mAb; leader in entries; also called anti gp34 clone wt.07
B2: gp34wt.08 (antibody, V domains shown)
VH: B1 VH with Q1E, K3Q, E6Q
VL: B1 VL with L4M
notes: mouse IgG1 hybridoma mAb; leader in entries; also called anti gp34 clone wt.08
B3: gp34wt.13 (antibody, V domains shown)
VH: EVQLVESGPELKKPGETVKISCKASGYAFTNYGMNWVKQTPGKGLKWMGWINTYTGKPTYADDFKGRFAFSLETSASSAYLQINNLKNEDTATYFCARRRGNSFDYWGQGTTLTVSS
VL: DIVLTQSPSSLTVTAGEKVTMSCKSSQSLLNSGNQENCLTWYQQKPGQPPRLLIYWASTRESGVPDRFTGSGSGTDFTLTISSVQAEDLAVYYCQNDYTYPLTFGAGTKLELK
notes: mouse IgG2a hybridoma mAb; leader in entries; also called anti gp34 clone wt.13
B4: gp34wt.14 (antibody, V domains shown)
VH: B3 VH with E1Q, Q3K, V5L, E6Q
VL: B3 VL with L4I
notes: mouse IgG2a hybridoma mAb; leader in entries; also called anti gp34 clone wt.14
B5: gp34wt.09 (antibody, V domains shown)
VH: EVQLEQSGPELVKPGASVKMSCKASGYTFTRPYIHWVKQRPGQGLEWIGWIYPGDGITKYNEKFKGKITLTADKSSSAAYMLLSSLTSEDSAIYFCASFTTPVYWGQGTSVTVSS
VL: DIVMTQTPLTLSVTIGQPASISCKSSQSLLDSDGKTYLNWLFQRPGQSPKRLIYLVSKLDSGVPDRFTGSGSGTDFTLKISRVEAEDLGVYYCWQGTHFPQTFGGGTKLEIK
notes: mouse IgG1 hybridoma mAb; leader in entries; also called anti gp34 clone wt.09
B6: gp34wt.12 (antibody, V domains shown)
VH: B5 VH with Q3K, E5Q, Q6E, F29V, P32S, I57S, I68T, A72V, A78T
VL: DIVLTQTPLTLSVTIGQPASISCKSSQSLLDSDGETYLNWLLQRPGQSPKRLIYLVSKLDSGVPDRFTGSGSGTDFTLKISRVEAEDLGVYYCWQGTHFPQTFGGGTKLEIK
notes: mouse IgG1 hybridoma mAb; leader in entries; also called anti gp34 clone wt.12
B7: gp34wt.11 (antibody, V domains shown)
VH: B5 VH with E1Q, Q6E, F29V, P32S, I57S, I68T, A72V, A78T
VL: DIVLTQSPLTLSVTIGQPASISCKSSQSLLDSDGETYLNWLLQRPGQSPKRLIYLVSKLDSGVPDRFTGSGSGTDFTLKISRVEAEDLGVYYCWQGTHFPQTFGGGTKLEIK
notes: mouse IgG1 hybridoma mAb; leader in entries; also called anti gp34 clone wt.11
B8: gp34wt.10 (antibody, V domains shown)
VH: B5 VH with Q3K
VL: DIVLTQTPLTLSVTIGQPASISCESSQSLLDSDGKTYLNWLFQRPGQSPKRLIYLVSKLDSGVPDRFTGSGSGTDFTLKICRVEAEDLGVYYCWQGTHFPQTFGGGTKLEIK
notes: mouse IgG1 hybridoma mAb; leader in entries; also called anti gp34 clone wt.10
B9: gp68.03 (antibody, V domains shown)
VH: EVKLEESGPEVKKPGETVKISCKASGYTFTNYGMSWLRQAPGKGLKWMGWINTYTGEPTYADDFKGRFAFSLETSASTAYFQINNLKDEDTTTYFCARRAFGGLDYWGQGTSVTVFS
VL: DIVLTQTPLSLPVSLGDQASISCRSSQSIVHSNGNTYLEWYLQKPGQSPKVLIYKVSKRFSGVPDRFSGSGSETDFTLKISRVEAEDMGVYYCFQGSHVPLTFGAGTKLELKR
notes: mouse IgG1 hybridoma mAb; leader in entries; VH entry see recheck; also called anti gp68 clone 68.03
B10: gp34wt.15 (antibody, V domains shown)
VH: QVKLQQSGPELVKPGASVKMSCKASGYTFRSYYIHWVKQRPGQGLEWIGWNNPGDGTAKYNEKFKGKTTLTADKSSSTAYMLLSSLTSEDSAIYFCASFNTPDYWGQGTSVTVSS
VL: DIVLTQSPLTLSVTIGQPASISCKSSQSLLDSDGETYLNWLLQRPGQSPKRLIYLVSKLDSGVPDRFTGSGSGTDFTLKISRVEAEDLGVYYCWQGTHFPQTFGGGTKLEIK
notes: mouse IgG1 hybridoma mAb; leader in entries; also called anti gp34 clone wt.15
B11: gp34mtrp.03 (antibody, V domains shown)
VH: EVQLEESGTVLARPGASVKMSCKASGYTFTSYWMHWVKQRPGQGLEWIGAIYPGNSDTGYNQKFKGKARLTAVTSTSTAYLELSSLTDEDSAVYFCTRLGYGDYWGQGTTLTVSS
VL: DIVLTQTPSSMYASLGERVTITCKASQDINSYLTWFQQKPGKSPKTLIYRANRLVDGVPSRFSGSGSGQDYSLTINSLDYEDMGIYYCLQYDEFPPTFGGGTKLEIK
notes: mouse IgG1 hybridoma mAb; leader in entries; also called anti gp34 clone mtrp.03
B12: gp34mtrp.04 (antibody, V domains shown)
VH: B11 VH with Q3K, E5V, E6Q
VL: B11 VL with L4M
notes: mouse IgG1 hybridoma mAb; leader in entries; also called anti gp34 clone mtrp.04
B13: gp34mtrp.05 (antibody, V domains shown)
VH: B9 VH with E5L, E6Q, F116S
VL: DIVMTQSPLSLPVSLGDQASISCRSSQSIVYTNGNTYLEWYLQKPGQSPKLLIYKVSNRFSGVPDRFSGSGSGTDFTLKISRVEAEDLGVYYCFQGSHVPWTFGGGTKLEIK
notes: mouse IgG1 hybridoma mAb; leader in entries; also called anti gp34 clone mtrp.05
B14: gp34mtrp.06 (antibody, V domains shown)
VH: B9 VH with K3Q, E5L, E6Q, D88N, F116S
VL: B13 VL with M4L
notes: mouse IgG1 hybridoma mAb; leader in entries; also called anti gp34 clone mtrp.06

Biological target: T1, soluble human ICOSL ectodomain, V5-His …
Assay: western blot

Binder	binding result
B1	no binding
B2	no binding
B3	no binding
B4	no binding
B5	no binding
B6	no binding
B7	no binding
B8	no binding
B9	no binding
B10	no binding

Biological target: T2, soluble gp34 ectodomain W65F, V5-His …
Assay: ELISA mtrp

Binder	binding result
B1	no binding
B2	no binding
B5	no binding
B6	no binding
B7	no binding
B8	no binding
B11	binds
B12	binds
B13	binds
B14	binds

Biological target: T3, gp34mtrp (W65F) on stably transduced …
Assay: flow cytometry, HeLa

Binder	binding result
B1	no binding (tested: 1 µg/ml)
B2	no binding (tested: 1 µg/ml)
B5	no binding (tested: 1 µg/ml)
B6	no binding (tested: 1 µg/ml)
B7	no binding (tested: 1 µg/ml)
B8	no binding (tested: 1 µg/ml)
B10	no binding (tested: 1 µg/ml)

Biological target: T7, gp68_ECD_1 (1-201 aa) (HCMV strain AD169, UniProt P16739 24-201)
T7 construct: signal peptide 1-23 left out
Assay: ELISA, coated supernatant

Binder	binding result
B9	no binding (tested: 1 µg/ml)

Biological target: T4, gp68_ECD_4a* (1-144aa)
Assay: ELISA, coated supernatant

Binder	binding result
B9	no binding (tested: 1 µg/ml)

Biological target: gp68_ECD_4b (1-152) (HCMV strain AD169, UniProt P16739 24-152)
Assay: ELISA, coated supernatant

Binder	binding result
B9	no binding (tested: 1 µg/ml)

Biological target: T5, gp34wt on stably transduced HeLa cells
Assay: flow cytometry, HeLa, 1 µg/ml

Binder	binding result
B5	binds
B6	binds
B7	binds
B8	binds
B10	binds

Biological target: T6, soluble gp34 wild type ectodomain, …
Assay: sgp34wt pre-incubated with mAb, ELISA on CRP
Text: In addition, binding of sgp34wt to immobilized CRP in absence of any mAb is depicted.

Binder	percent blocking of gp34-CRP-binding [%]
B11	~50
B12	~50
B13	~50
B14	~50

Biological target: T6, soluble gp34 wild type ectodomain, …
Assay: sgp34wt pre-incubated with mAb, ELISA on FcRn
Experimental: Furthermore, the gp34wt and FcRn interaction was investigated whereby various anti-gp34 mAbs were analyzed and their potential to block this interaction was identified. Experiments were performed as described before for IgG-blocking ELISA, but this time using immobilized FcRn as a novel gp34-ligand.
In addition, binding of sgp34wt to immobilized FcRn in absence of any mAb is depicted.

Binder	percent blocking of gp34 FcRn-binding [%]
B11	≤ 50
B12	≤ 50
B13	≤ 50
B14	≤ 50

Biological target: T6, soluble gp34 wild type ectodomain, …
Assay: blocking of sgp34wt binding to immobilized human IgG, ELISA
Experimental: FIG. 44: IgG blocking ability by anti-gp34mtrp mAbs. vFcγR gp34 is an HCMV encoded IgG-Fc-binding. Anti-gp34mtrp-specific mAbs (in titration) were pre-incubated with recombinant, sgp34wt (constant amount 1 μg/ml) and added to IgG-immobilized ELISA plates. […] Dose-dependent potential of mAbs used for blocking is indicated. Effect by non-specific mouse IgG isotype IgG1 is shown. In addition, binding of sgp34wt to immobilized IgG in absence of any mAb is depicted.
To test if anti-gp34wt specific mAbs can interfere with IgG-binding ability of gp34 and human IgG. Therefore, recombinant, sgp34wt was pre-incubated with indicated anti-gp34wt specific mAbs, mouse IgG isotype or PBS only. Next, antibody bound sgp34wt was incubated on IgG-immobilized ELISA plates.
Anti-gp34wt-specific mAbs (in titration) were pre-incubated with recombinant, sgp34wt (constant amount 1 μg/ml) and added to IgG-immobilized ELISA plates. […] Dose-dependent potential of mAbs used for blocking is indicated. […] In addition, binding of sgp34wt to immobilized IgG in absence of any mAb is depicted.

Binder	IC50 [µg/mL]
B1	0.447
B2	0.494
B5	0.063
B6	0.07
B7	0.077
B8	0.089
B11	0.152
B12	0.147
B13	5.34
B14	4.46
B10	0.12
